Reference: PMC3119452 (Structure (London, England : 1993), 2010)
“And” between values parts separate entries of the source, which are not always exact repeats. Identical values can stand only once. Like-named read-outs stand apart in the source and are kept apart here. Each block holds one molecule with its values, some of them ahead of it.

How the values were obtained:
[1] = biological target: full-length HYL1 (Arabidopsis HYPONASTIC LEAVES1) (Arabidopsis) (UniProt O04492); test: SEC
[2] = biological target: full-length HYL1 (Arabidopsis HYPONASTIC LEAVES1) (Arabidopsis) (UniProt O04492); test: SEC; remark: listed apart in the source
GST-HYL1 fusion protein = biological target: T1, GST-HYL1 fusion protein (Arabidopsis, UniProt O04492 1-419); test: pull-down
T1 sequence (looked up): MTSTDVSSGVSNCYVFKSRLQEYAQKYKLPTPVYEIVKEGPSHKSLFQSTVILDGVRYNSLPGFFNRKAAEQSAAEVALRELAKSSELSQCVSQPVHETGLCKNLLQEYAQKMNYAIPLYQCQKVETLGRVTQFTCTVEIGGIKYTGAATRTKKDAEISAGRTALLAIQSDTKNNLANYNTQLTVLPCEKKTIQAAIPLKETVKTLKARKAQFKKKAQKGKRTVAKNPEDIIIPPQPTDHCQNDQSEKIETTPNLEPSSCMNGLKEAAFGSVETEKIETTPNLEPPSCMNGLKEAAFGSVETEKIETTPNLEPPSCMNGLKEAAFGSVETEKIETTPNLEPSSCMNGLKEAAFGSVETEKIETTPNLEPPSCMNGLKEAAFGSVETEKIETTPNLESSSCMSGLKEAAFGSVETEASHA

crystal structure = biological target: the molecule itself; test: crystal structure

stoichiometry N [1]: 8 and 10
percent of the monomer peak shifted to the 110 kDa peak [2]: 90%
stoichiometry N [2]: 2
Molecule: full-length HYL1 (Arabidopsis HYPONASTIC LEAVES1) (from UniProt O04492 1-419) (natural protein)

binding result (GST-HYL1 fusion protein): binds
B1: HYL1 dsRBD1+2 (HR1+2; residues 15-172) (domain or fragment, Arabidopsis, UniProt O04492 15-172, looked up)
chain: VFKSRLQEYAQKYKLPTPVYEIVKEGPSHKSLFQSTVILDGVRYNSLPGFFNRKAAEQSAAEVALRELAKSSELSQCVSQPVHETGLCKNLLQEYAQKMNYAIPLYQCQKVETLGRVTQFTCTVEIGGIKYTGAATRTKKDAEISAGRTALLAIQSDT

The next lines start with the molecule.

B2: HYL1 dsRBD2 (HR2; residues 100-172) (domain or fragment, Arabidopsis, UniProt O04492 100-172, looked up)
chain: GLCKNLLQEYAQKMNYAIPLYQCQKVETLGRVTQFTCTVEIGGIKYTGAATRTKKDAEISAGRTALLAIQSDT
binding result (crystal structure): binds

B3: HR2 (residues 101-171) used in the pull-down (domain or fragment, Arabidopsis, UniProt O04492 101-171, looked up)
chain: LCKNLLQEYAQKMNYAIPLYQCQKVETLGRVTQFTCTVEIGGIKYTGAATRTKKDAEISAGRTALLAIQSD
binding result (GST-HYL1 fusion protein): binds
